Data from patent US20220112270.

Legend:
[1] = molecular target: another recombinant AAT (R&D systems) (UniProt P01009)
[2] = system: mouse AAT in mouse plasma
[3] = molecular target: plasma-derived human alpha 1-antitrypsin (AAT) (UniProt P01009)
[4] = system: recombinant human alpha 1-antitrypsin (AAT) derived from recombinant CHO cells

trypsin
trypsin activity (fluorogenic peptide substrate) [1]: drastically reduced trypsin activity in a similar manner as ... another recombinant AAT (R&D systems) | trypsin activity (fluorogenic peptide substrate) [2]: drastically reduced trypsin activity in a similar manner as ... mouse plasma diluted from a sample that contained about 1.2 g/L mouse AAT | trypsin activity (fluorogenic peptide substrate) [3]: drastically reduced trypsin activity in a similar manner as a plasma-derived AAT (Prolastin) | trypsin activity (fluorogenic peptide substrate) [4]: At a concentration of 5 ng/ml, the recombinant AAT described and obtained by the methods presented herein (ExcellGene) drastically reduced trypsin activity
